Source: paper PMC7990499, “eIF2B conformation and assembly state regulate the integrated stress response” (eLife, 2021)

What was measured:
[1] = biological target: eIF2B(αβδγε)2 decamer (human) (UniProt Q14232); experiment: fluorescence polarisation; displacement of FAM-ISRIB (2.5 nM) from 100 nM eIF2B(αβδγε)2 by titrated eIF2, eIF2-P, eIF2α or eIF2α-P; 30 min at 22°C; 20 mM HEPES-KOH pH 7.5, 100 mM KCl, 5 mM MgCl2, 1 mM TCEP; also timecourses with PKR or λ phosphatase at 5.6 μM eIF2α/eIF2α-P
[2] = biological target: eIF2B(αβδγε)2 decamer (human) (UniProt Q14232)

Substance | IC50 [1] [nM] | t1/2 of BODIPY-FL-GDP exchange on eIF2 by 10 nM eIF2B(αβδγε)2 (GEF activity) at 0, 0.2, 1 and 2 μM eIF2α-P (control 2.4 min) [2] [min] | t1/2 of BODIPY-FL-GDP exchange on eIF2 by 10 nM eIF2B(αβδγε)2 (GEF activity) at 0, 50, 100 and 250 nM eIF2-P (control 1.6 min) [2] [min]
human phosphorylated eIF2α (eIF2α-P) (from UniProt P05198 1-315) (natural protein) | 4000 | 6.7 | 
phosphorylated heterotrimeric human eIF2 (eIF2-P) (from UniProt P05198 1-315; P20042 1-333; P41091 1-472) (complex) | 210 |  | 7.2
